The source of these data is patent US20170066831A1 (Janssen / Centocor, published 2017).

Assay [1] deals with T1, human ST2L extracellular domain with C-terminal His6 tag (human, UniProt Q01638 19-328).
T1 construct: also called huST2L-ECD; ST2L-ECD
T1 sequence: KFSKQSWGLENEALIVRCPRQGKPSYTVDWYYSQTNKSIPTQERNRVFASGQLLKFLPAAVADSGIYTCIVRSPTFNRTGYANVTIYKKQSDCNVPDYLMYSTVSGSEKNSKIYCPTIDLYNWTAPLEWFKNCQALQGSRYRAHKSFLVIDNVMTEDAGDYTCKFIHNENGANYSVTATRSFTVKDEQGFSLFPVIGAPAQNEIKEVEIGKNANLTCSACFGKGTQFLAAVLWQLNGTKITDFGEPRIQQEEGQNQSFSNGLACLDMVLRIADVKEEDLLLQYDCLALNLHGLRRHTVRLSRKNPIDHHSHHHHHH
Nature of the assay: RLB ELISA: biotinylated IL-33 on coated huST2L-ECD, antibody titrated. As to the method:
96-well plate was coated with 50 μl of 4 μg/ml human ST2L-ECD (amino acids 19-328 of SEQ ID NO: 1) or 2 μg/ml cyno ST2L-ECD (amino acids 19-321 of SEQ ID NO: 2) having C-terminal His₆ tag in bicarbonate buffer at 4° C. for 16 hrs. All subsequent steps were performed at room temperature. Plate was blocked with 200 μl blocking buffer, and was washed 3 times with 300 μl of wash buffer containing PBS+0.05% Tween. 30 μl of various dilutions of anti-ST2L mAbs were added to the wells and incubated for 1 hour. For human receptor-ligand binding assay 20 μl of biotinylated human IL-33 (residues 112-270 of SEQ ID NO: 3) was added at 100 ng/ml final concentration and incubated for 30 minutes. For cyno receptor-ligand binding assay 20 μl of biotinylated cyno IL-33 (residues 112-269 of SEQ ID NO: 4) was added at 200 ng/ml final concentration and incubated for 30 minutes. The plate was washed 3 times with 300 μl of wash buffer. 50 μl of 0.2 μg/ml Streptavidin-HRP (Jackson Immunoresearch) was added and incubated for 30 min. The plate was washed 3 times with 300 μl of wash buffer containing PBS+0.05% Tween. 50 μl of TMB substrate (EMD Biosciences) was added to each well. Reaction was stopped by the addition of 100 μl of 0.2N Sulfuric Acid. OD450 were measured using Envision plate reader (Perkin Elmer).

In assay [2] the target is T2, human ST2L, full length, on cells (human, UniProt Q01638 19-556).
T2 sequence: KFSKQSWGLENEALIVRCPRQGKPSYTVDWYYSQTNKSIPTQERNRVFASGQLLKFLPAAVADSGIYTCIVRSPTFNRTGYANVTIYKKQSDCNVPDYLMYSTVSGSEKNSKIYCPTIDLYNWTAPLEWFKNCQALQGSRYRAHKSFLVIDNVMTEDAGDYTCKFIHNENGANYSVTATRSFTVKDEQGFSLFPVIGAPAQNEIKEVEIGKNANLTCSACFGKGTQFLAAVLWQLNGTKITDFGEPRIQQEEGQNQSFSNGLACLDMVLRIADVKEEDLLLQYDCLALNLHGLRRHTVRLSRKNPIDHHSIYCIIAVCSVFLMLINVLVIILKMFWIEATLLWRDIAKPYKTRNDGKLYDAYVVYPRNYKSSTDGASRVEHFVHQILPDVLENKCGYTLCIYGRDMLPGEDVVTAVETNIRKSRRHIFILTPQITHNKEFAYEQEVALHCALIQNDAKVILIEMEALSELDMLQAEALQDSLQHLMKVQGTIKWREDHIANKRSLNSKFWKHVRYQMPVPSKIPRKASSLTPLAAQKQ
The assay can be described thus: cell-based or functional assay.

The target of assay [3] is T1, human ST2L extracellular domain with …. The assay can be described thus: SPR, mAb captured, ST2L-ECD in solution.
Assay [4] has as its target T3, cynomolgus (Macaca fascicularis) ST2L extracellular domain with C-terminal His6 tag (Macaca fascicularis (cynomolgus), UniProt Q01638 19-321 (human entry)).
T3 construct: also called cyno ST2L-ECD; cynoST2L-ECD
T3 chain: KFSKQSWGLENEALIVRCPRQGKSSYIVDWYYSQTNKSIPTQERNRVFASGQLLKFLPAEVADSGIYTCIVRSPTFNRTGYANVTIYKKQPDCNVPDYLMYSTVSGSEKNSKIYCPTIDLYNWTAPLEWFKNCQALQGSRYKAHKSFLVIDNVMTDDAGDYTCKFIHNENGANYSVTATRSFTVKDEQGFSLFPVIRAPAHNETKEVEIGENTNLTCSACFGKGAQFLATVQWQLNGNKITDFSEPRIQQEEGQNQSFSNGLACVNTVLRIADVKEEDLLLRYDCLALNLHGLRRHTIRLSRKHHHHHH
Nature of the assay: SPR, mAb captured, ST2L-ECD in solution. A general note: Surface plasmon resonance follows binding to a sensor surface in real time, without labels.

B1: STLM217 (antibody, V domains shown)
VH: EVQLLESGGGLVQPGGSLRLSCAASGFTFSVYDMFWVRQAPGKGLEWVSDIKGEGGETSYADSVKGRFTISRDNSKNTLYLQMNSLRAEDTAVYYCARDPWSTEGSFFVLDYWGQGTLVTVSS
VL: EIVLTQSPATLSLSPGERATLSCRASQSVDDDLAWYQQKPGQAPRLLIYDASNRATGIPARFSGSGSGTDFTLTISSLEPEDFAVYYCQQYIGAPITFGQGTKVEIK
notes: frameworks VH3-23 / Vk-L6
In assay [1], B1 registered an IC50 of 0.49 µg/mL. Moreover, in assay [2], the “RGA IC50” value turned out to be 1.69 µg/mL. In assay [3], the Kd stood at 0.017 nM, the koff came out at 0.000126 s⁻¹ and the kon is 7.27e+06 M⁻¹ s⁻¹. Moreover, in assay [4], the Kd was determined as 0.004 nM, the koff stood at 0.000138 s⁻¹ and the kon is 3.81e+07 M⁻¹ s⁻¹.

B2: STLM211 (antibody, V domains shown)
VH: EVQLLESGGGLVQPGGSLRLSCAASGFTFSGYAMIWVRQAPGKGLEWVSYIEGEGGETYYADSVKGRFTISRDNSKNTLYLQMNSLRAEDTAVYYCARDPWSTEGSFFVLDYWGQGTLVTVSS
VL: EIVLTQSPATLSLSPGERATLSCRASQSVDDDLAWYQQKPGQAPRLLIYDASNRATGIPARFSGSGSGTDFTLTISSLEPEDFAVYYCQQYNDAITFGQGTKVEIK
notes: frameworks VH3-23 / Vk-L6
As to B2, in assay [1], the IC50 amounted to 0.28 µg/mL. Further, in assay [2], the “RGA IC50” value was determined as 2.52 µg/mL. Also, in assay [3], the Kd was 0.029 nM, the koff amounted to 0.000483 s⁻¹ and the kon is 1.7e+07 M⁻¹ s⁻¹. In assay [4], this molecule registered a Kd of 0.014 nM, a koff of 0.00139 s⁻¹ and a kon of 1e+08 M⁻¹ s⁻¹.

B3: STLM210 (antibody, V domains shown)
VH: EVQLLESGGGLVQPGGSLRLSCAASGFTFSDDAMIWVRQAPGKGLEWVSYIGGNGGTTYYADSVKGRFTISRDNSKNTLYLQMNSLRAEDTAVYYCARDPWSTEGSFFVLDYWGQGTLVTVSS
VL: EIVLTQSPATLSLSPGERATLSCRASQSVDDDLAWYQQKPGQAPRLLIYDASNRATGIPARFSGSGSGTDFTLTISSLEPEDFAVYYCQQYNDAITFGQGTKVEIK
notes: frameworks VH3-23 / Vk-L6
In turn, B3 had an IC50 in assay [1] of 0.3 µg/mL. The “RGA IC50” value in assay [2] is 2.1 µg/mL. In assay [3], the Kd stood at 0.019 nM, the koff worked out at 0.000227 s⁻¹ and the kon was determined as 1.21e+07 M⁻¹ s⁻¹. In assay [4], this molecule gave a Kd of 0.009 nM, a koff of 0.000528 s⁻¹ and a kon of 5.7e+07 M⁻¹ s⁻¹.

B4: STLM222 (antibody, V domains shown)
VH: EVQLLESGGGLVQPGGSLRLSCAASGFTFSIYSMFWVRQAPGKGLEWVSDIGGEGGGTSYADSVKGRFTISRDNSKNTLYLQMNSLRAEDTAVYYCARDPWSTEGSFFVLDYWGQGTLVTVSS
VL: EIVLTQSPATLSLSPGERATLSCRASQSVDDDLAWYQQKPGQAPRLLIYDASNRATGIPARFSGSGSGTDFTLTISSLEPEDFAVYYCQQYIGAPITFGQGTKVEIK
notes: frameworks VH3-23 / Vk-L6
In assay [1], B4 yielded an IC50 of 0.25 µg/mL. Also, the “RGA IC50” value in assay [2] was determined as 1.88 µg/mL. Further, in assay [3], the Kd turned out to be 0.037 nM, the koff worked out at 0.000301 s⁻¹ and the kon came to 8.22e+06 M⁻¹ s⁻¹. In assay [4], binding was put at a Kd of 0.029 nM, the koff turned out to be 0.000345 s⁻¹ and the kon stood at 1.18e+07 M⁻¹ s⁻¹.

B5: STLM219 (antibody, V domains shown)
VH: EVQLLESGGGLVQPGGSLRLSCAASGFTFSGYDMFWVRQAPGKGLEWVSDIGGEGGSTNYADSVKGRFTISRDNSKNTLYLQMNSLRAEDTAVYYCARDPWSTEGSFFVLDYWGQGTLVTVSS
VL: EIVLTQSPATLSLSPGERATLSCRASQSVDDDLAWYQQKPGQAPRLLIYDASNRATGIPARFSGSGSGTDFTLTISSLEPEDFAVYYCQQYIGAPITFGQGTKVEIK
notes: frameworks VH3-23 / Vk-L6
Regarding B5, the IC50 in assay [1] came out at 0.29 µg/mL. Also, in assay [2], the “RGA IC50” value came out at 3.16 µg/mL. In assay [3], this molecule yielded a Kd of 0.027 nM, a koff of 0.000201 s⁻¹ and a kon of 7.54e+06 M⁻¹ s⁻¹. In assay [4], this molecule displayed a Kd of 0.022 nM, a koff of 0.00023 s⁻¹ and a kon of 1.07e+07 M⁻¹ s⁻¹.

B6: STLM221 (antibody, V domains shown)
VH: EVQLLESGGGLVQPGGSLRLSCAASGFTFSIYDMFWVRQAPGKGLEWVSYIRGEGGDTNYADSVKGRFTISRDNSKNTLYLQMNSLRAEDTAVYYCARDPWSTEGSFFVLDYWGQGTLVTVSS
VL: EIVLTQSPATLSLSPGERATLSCRASQSVDDDLAWYQQKPGQAPRLLIYDASNRATGIPARFSGSGSGTDFTLTISSLEPEDFAVYYCQQYIGAPITFGQGTKVEIK
notes: frameworks VH3-23 / Vk-L6
Consider B6, for which the IC50 in assay [1] was 0.39 µg/mL. The “RGA IC50” value in assay [2] amounted to 2.79 µg/mL. In assay [3], this molecule registered a Kd of 0.035 nM, a koff of 9.61e-05 s⁻¹ and a kon of 2.73e+06 M⁻¹ s⁻¹. In assay [4], this molecule had a Kd of 0.022 nM, an off-rate constant (koff) of 0.00013 s⁻¹ and a kon of 6.04e+06 M⁻¹ s⁻¹.

B7: STLM218 (antibody, V domains shown)
VH: EVQLLESGGGLVQPGGSLRLSCAASGFTFSVDSMFWVRQAPGKGLEWVSSIEGNGGATYYADSVKGRFTISRDNSKNTLYLQMNSLRAEDTAVYYCARDPWSTEGSFFVLDYWGQGTLVTVSS
VL: EIVLTQSPATLSLSPGERATLSCRASQSVDDDLAWYQQKPGQAPRLLIYDASNRATGIPARFSGSGSGTDFTLTISSLEPEDFAVYYCQQYIGAPITFGQGTKVEIK
notes: frameworks VH3-23 / Vk-L6
B7: it took 0.42 µg/mL to reach half-maximal inhibition in assay [1] (IC50). Also, in assay [2], the “RGA IC50” value worked out at 1.33 µg/mL. In assay [3], this molecule registered a Kd of 0.023 nM, a koff of 0.000224 s⁻¹ and a kon of 9.89e+06 M⁻¹ s⁻¹. In assay [4], this molecule registered a Kd of 0.018 nM, a koff of 0.000265 s⁻¹ and a kon of 1.45e+07 M⁻¹ s⁻¹.

B8: STLM212 (antibody, V domains shown)
VH: EVQLLESGGGLVQPGGSLRLSCAASGFTFSVYDMIWVRQAPGKGLEWVSTIRGEGGGTYYADSVKGRFTISRDNSKNTLYLQMNSLRAEDTAVYYCARDPWSTEGSFFVLDYWGQGTLVTVSS
VL: EIVLTQSPATLSLSPGERATLSCRASQSVDDDLAWYQQKPGQAPRLLIYDASNRATGIPARFSGSGSGTDFTLTISSLEPEDFAVYYCQQYNDAITFGQGTKVEIK
notes: frameworks VH3-23 / Vk-L6
The molecule B8 gave an IC50 in assay [1] of 0.33 µg/mL. For the same molecule, the “RGA IC50” value in assay [2] is 4.32 µg/mL. In assay [3], this molecule displayed a Kd of 0.032 nM, a koff of 0.000398 s⁻¹ and a kon of 1.24e+07 M⁻¹ s⁻¹. Also, in assay [4], binding was characterised by a dissociation constant (Kd) of 0.024 nM, the koff is 0.000346 s⁻¹ and the kon worked out at 1.43e+07 M⁻¹ s⁻¹.

B9: STLM226 (antibody, V domains shown)
VH: EVQLVQSGAEVKKPGATVKISCKVSAFNIKDDYMHWVQQAPGKGLEWMGRIDPAIGNTEYAEKFQGRVTITADTSTDTAYMELSSLRSEDTAVYYCATGDFYAMAYWGQGTLVTVSS
VL: DIQMTQSPSSLSASVGDRVTITCITNTDIDDVIHWYQQKPGKAPKLLIYEGNTLRPGVPSRFSGSGSGTDFTLTISSLQPEDFATYYCLQSDNLLTFGQGTKLEIK
notes: VH STLH201 + VL STLL280
With B9, half-maximal inhibition in assay [1] (IC50) required 0.26 µg/mL. For the same molecule, the “RGA IC50” value in assay [2] was 0.25 µg/mL. Also, in assay [3], the Kd was 0.09 nM, the koff turned out to be 0.00193 s⁻¹ and the kon came to 2.16e+07 M⁻¹ s⁻¹. In assay [4], the equilibrium dissociation constant (Kd) was found to be 0.301 nM, the koff was determined as 0.0301 s⁻¹ and the kon worked out at 1e+08 M⁻¹ s⁻¹.

In general, IC50 refers to the concentration at which inhibition is half-maximal. A high value points to weaker potency. As usually defined, the Kd is the free concentration of one partner at which half of the binding sites on the other are occupied at equilibrium, for simple one-to-one binding. A high value points to a looser complex. Usually koff stands for the rate constant with which the complex falls apart. High values mean fast dissociation, low ones slow dissociation. As a reminder, the kon is the rate constant with which the complex forms.
